No end group written: not given here.
Legend:
[1] = biological target: T1, HLA-DR13 (HLA-DRB1*13:01) (human); experiment: competition ELISA vs biotin-B1 21-36
T1 chain 1: not shown
T1 chain 2: not shown

[2] = biological target: T2, HLA-DP401 (HLA-DPB1*04:01) (human, UniProt P20036 29-222); experiment: competition ELISA vs biotin-Oxy 271-287
T2 construct: mature; purified from homozygous EBV-transformed lymphoblastoid cells with antibody B7/21

[3] = biological target: T3, HLA-DP402 (HLA-DPB1*04:02) (human, UniProt P20036 29-222); experiment: competition ELISA vs biotin-Oxy 271-287
T3 construct: mature; purified from homozygous EBV-transformed lymphoblastoid cells with antibody B7/21

[4] = biological target: T4, HLA-DR1 (HLA-DRB1*01:01) (human); experiment: competition ELISA vs biotin-HA 306-318;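 also: HLA and competitor incubated 24 to 72 h, maximal signal taken from wells lacking competitor, background from wells lacking HLA molecule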
T4 construct: mature; class II HLA molecule purified from homozygous EBV-transformed lymphoblastoid cells with antibody L243

[5] = biological target: T5, HLA-DRB5 (HLA-DRB5*01:01) (human); experiment: competition ELISA vs biotin-HA 306-318;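 also: HLA and competitor incubated 24 to 72 h, maximal signal taken from wells lacking competitor, background from wells lacking HLA molecule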
T5 construct: mature; purified from homozygous EBV-transformed lymphoblastoid cells with antibody L243

[6] = biological target: T6, HLA-DR11 (HLA-DRB1*11:01) (human); experiment: competition ELISA vs biotin-HA 306-318;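 also: HLA and competitor incubated 24 to 72 h, maximal signal taken from wells lacking competitor, background from wells lacking HLA molecule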
T6 construct: mature; purified from homozygous EBV-transformed lymphoblastoid cells with antibody L243

[7] = biological target: T7, HLA-DR4 (HLA-DRB1*04:01) (human); experiment: competition ELISA vs biotin-HA 306-318;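 also: HLA and competitor incubated 24 to 72 h, maximal signal taken from wells lacking competitor, background from wells lacking HLA molecule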
T7 construct: mature; purified from homozygous EBV-transformed lymphoblastoid cells with antibody L243

[8] = biological target: T8, HLA-DR3 (HLA-DRB1*03:01) (human); experiment: competition ELISA vs biotin-MT 2-16
T8 construct: mature; purified from homozygous EBV-transformed lymphoblastoid cells with antibody L243

[9] = biological target: T9, HLA-DRB4 (HLA-DRB4*01:01) (human); experiment: competition ELISA vs biotin-E2/E168
T9 construct: mature; purified from homozygous EBV-transformed lymphoblastoid cells with antibody L243

[10] = biological target: T10, HLA-DR7 (HLA-DRB1*07:01) (human); experiment: competition ELISA vs biotin-YKL
T10 construct: mature; purified from homozygous EBV-transformed lymphoblastoid cells with antibody L243

[11] = biological target: T11, HLA-DR13 (HLA-DRB1*13:01) (human); experiment: competition ELISA vs biotin-B1 21-36
T11 construct: mature; purified from homozygous EBV-transformed lymphoblastoid cells with antibody L243

[12] = biological target: T12, HLA-DR15 (HLA-DRB1*15:01) (human); experiment: competition ELISA vs biotin-A3 152-166
T12 construct: mature; purified from homozygous EBV-transformed lymphoblastoid cells with antibody L243

[13] = biological target: T13, HLA-DRB3 (HLA-DRB3*01:01) (human); experiment: competition ELISA vs biotin-LOL 191-210
T13 construct: mature; purified from homozygous EBV-transformed lymphoblastoid cells with antibody L243

TERVRLVTRHIYNREE (modifications not checked) [B1 21-36]
IC50 [1]: 51 nM

MEMKILRALNFGLGR-NH2 [CCNB1 285-299]
relative affinity [2]: 30
relative affinity [3]: 4
relative affinity [4]: 1
relative affinity [5]: 2
relative affinity [6]: 4
relative affinity [7]: 7
relative affinity [8]: 51
relative affinity [9]: 18
relative affinity [10]: 0.1
relative affinity [11]: 1
relative affinity [12]: 0.03

AKYLMELTMLDYDMV-NH2 [CCNB1 323-337]
relative affinity [2]: 1
relative affinity [3]: 6
relative affinity [4]: 4
relative affinity [5]: 2
relative affinity [6]: 0.4
relative affinity [7]: 0.2
relative affinity [8]: 2
relative affinity [9]: 7
relative affinity [10]: 8
relative affinity [13]: 41
relative affinity [12]: 2

HTLAKYLMELTMLDY-NH2 [CCNB1 320-334]
relative affinity [2]: 8
relative affinity [3]: 3
relative affinity [4]: 16
relative affinity [5]: 17
relative affinity [6]: 2
relative affinity [7]: 1
relative affinity [8]: 1
relative affinity [9]: 18
relative affinity [10]: 18
relative affinity [13]: 24
relative affinity [11]: 10
relative affinity [12]: 3

ESLLPVMQHLAKNVV-NH2 [CCNB1 374-388]
relative affinity [4]: 837
relative affinity [5]: 91
relative affinity [6]: 0.3
relative affinity [7]: 91
relative affinity [8]: 764
relative affinity [9]: 424
relative affinity [10]: 3
relative affinity [11]: 6
relative affinity [12]: 19

AKISTLPQLNSALVQ-NH2 [CCNB1 410-424]
relative affinity [3]: 1120
relative affinity [4]: 89
relative affinity [6]: 1
relative affinity [7]: 408
relative affinity [9]: 966
relative affinity [11]: 94
relative affinity [12]: 12

NSALVQDLAKAVAKV-NH2 [CCNB1 419-433]
relative affinity [3]: 148
relative affinity [4]: 155
relative affinity [6]: 3
relative affinity [7]: 333
relative affinity [8]: 1
relative affinity [10]: 183
relative affinity [13]: 7
relative affinity [11]: 37
relative affinity [12]: 7

PQLNSALVQDLAKAV-NH2 [CCNB1 416-430]
relative affinity [2]: 59
relative affinity [3]: 74
relative affinity [4]: 693
relative affinity [5]: 548
relative affinity [6]: 123
relative affinity [7]: 54
relative affinity [8]: 9
relative affinity [9]: 1800
relative affinity [10]: 47
relative affinity [13]: 3
relative affinity [12]: 71
